Measured values from US20030009022A1 (published 2003).
Ends that are not written are not given here. * marks the point of attachment. For = O=C*

Tests used:
Test in all cases: cell-based or functional assay
[1] = target: T1, human formyl peptide receptor like-1 (FPRL-1) receptor (human, UniProt P25090 1-351)
T1 sequence (looked up): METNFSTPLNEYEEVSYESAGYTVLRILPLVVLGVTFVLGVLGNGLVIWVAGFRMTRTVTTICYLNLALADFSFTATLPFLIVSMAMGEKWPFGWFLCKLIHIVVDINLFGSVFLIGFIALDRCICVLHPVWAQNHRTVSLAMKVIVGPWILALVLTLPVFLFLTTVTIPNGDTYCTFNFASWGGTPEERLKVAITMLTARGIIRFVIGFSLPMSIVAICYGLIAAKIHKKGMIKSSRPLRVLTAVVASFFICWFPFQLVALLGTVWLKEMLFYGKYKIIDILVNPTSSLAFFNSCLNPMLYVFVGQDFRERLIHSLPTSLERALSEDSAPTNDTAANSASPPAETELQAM

[2] = target: T2, human formyl peptide receptor FPR1 (human, UniProt P21462 1-350)
T2 sequence (looked up): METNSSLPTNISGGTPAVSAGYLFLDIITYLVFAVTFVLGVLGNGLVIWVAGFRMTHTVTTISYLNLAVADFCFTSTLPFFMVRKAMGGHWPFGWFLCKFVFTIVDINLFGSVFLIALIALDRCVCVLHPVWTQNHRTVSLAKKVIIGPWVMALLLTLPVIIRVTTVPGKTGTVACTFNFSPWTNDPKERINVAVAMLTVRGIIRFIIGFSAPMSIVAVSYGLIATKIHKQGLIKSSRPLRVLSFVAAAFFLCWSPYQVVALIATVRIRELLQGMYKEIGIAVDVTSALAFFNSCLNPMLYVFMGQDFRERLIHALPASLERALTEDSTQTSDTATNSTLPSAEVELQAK

[3] = target: T1, human formyl peptide receptor like-1 …; remark: listed apart in the source
[4] = target: T2, human formyl peptide receptor FPR1; remark: listed apart in the source

LESIFRSLLFRVM [peptide MMK-1]
EC50(nM), transient Ca2+ flux in HEK293/Gα16 cells expressing FPRL-1 [1]: < 2 nM
EC50(nM), transient Ca2+ flux in HEK293/Gα16 cells expressing FPR1 [2]: > 10000 nM

RFPKNCHLRPPRMILFTALV [peptide AF-3]
EC50(nM), transient Ca2+ flux in HEK293/Gα16 cells expressing FPRL-1 [1]: 650 nM
EC50(nM), transient Ca2+ flux in HEK293/Gα16 cells expressing FPR1 [2]: 380 nM

SLLWLTCRPWEAM [peptide A5, Ser-Leu-Leu-Trp-Leu-Thr-Cys-Arg-Pro-Trp-Glu-Ala-Met]
EC50, calcium mobilization in indo-1 loaded human neutrophils [3]: ~300 nM
apparent EC50, induction of β-galactosidase activity by synthetic peptide added to yeast strain CY6565 [3]: ~5 µM
induction of β-galactosidase activity (FUSI-lacZ, yeast) [3]: 7 fold
stimulation over background levels of β-galactosidase (fus1-lacZ, yeast) [3]: 8 fold
EC50(nM), transient Ca2+ flux in HEK293/Gα16 cells expressing FPRL-1 [1]: 35 nM
EC50(nM), transient Ca2+ flux in HEK293/Gα16 cells expressing FPR1 [2]: > 10000 nM

CPAAVLWRWVPM [peptide AF-1]
EC50(nM), transient Ca2+ flux in HEK293/Gα16 cells expressing FPRL-1 [1]: 16 nM
EC50(nM), transient Ca2+ flux in HEK293/Gα16 cells expressing FPR1 [2]: 5000 nM

MMWLL [peptide MMWLL, Met-Met-Trp-Leu-Leu]
EC50(nM), transient Ca2+ flux in HEK293/Gα16 cells expressing FPRL-1 [1]: 80 nM
EC50(nM), transient Ca2+ flux in HEK293/Gα16 cells expressing FPR1 [2]: < 0.3 nM

PPFFFRPVGMF [peptide DM-1]
EC50(nM), transient Ca2+ flux in HEK293/Gα16 cells expressing FPRL-1 [1]: 2400 nM
EC50(nM), transient Ca2+ flux in HEK293/Gα16 cells expressing FPR1 [2]: > 10000 nM

For-Met-Leu-Phe [fMLP, formyl-MLF]
EC50, transient calcium mobilization in HEK293/Gα16 cells expressing FPRL-1 [3]: 400 nM
EC50, calcium mobilization in human neutrophils [4]: < 200 pM
EC50(nM), transient Ca2+ flux in HEK293/Gα16 cells expressing FPRL-1 [1]: 40 nM
EC50(nM), transient Ca2+ flux in HEK293/Gα16 cells expressing FPR1 [2]: < 0.3 nM

SMCPTASAWVWLM [peptide AF-2]
EC50(nM), transient Ca2+ flux in HEK293/Gα16 cells expressing FPRL-1 [1]: 87 nM
EC50(nM), transient Ca2+ flux in HEK293/Gα16 cells expressing FPR1 [2]: 690 nM

For-SLLWLTCRPWEAM [f-A5, N-terminally formylated derivative of peptide A5]
EC50 against that of A5, calcium mobilization in indo-1 loaded human neutrophils [3]: 10 fold lower EC50 than A5
EC50, calcium mobilization in HEK293/Gα16 cells expressing FPR1 [4]: 100 pM
EC50(nM), transient Ca2+ flux in HEK293/Gα16 cells expressing FPRL-1 [1]: 2 nM
EC50(nM), transient Ca2+ flux in HEK293/Gα16 cells expressing FPR1 [2]: 10 nM
